According to ChEMBL document CHEMBL4321859, “Unforeseen Possibilities To Investigate the Regulation of Polyamine Metabolism Revealed by Novel C-Methylated Spermine Derivatives” (J Med Chem, 2019):

Substrate: CC(CN)CNCCCCNCC(C)CN
Assay: Substrate activity at recombinant human SMOX assessed as Km at 2000 to 6000 uM
Format: ADME

B1: Spermine oxidase (Homo sapiens) (protein)
chain: MQSCESSGDSADDPLSRGLRRRGQPRVVVIGAGLAGLAAAKALLEQGFTDVTVLEASSHIGGRVQSVKLGHATFELGATWIHGSHGNPIYHLAEANGLLEETTDGERSVGRISLYSKNGVACYLTNHGRRIPKDVVEEFSDLYNEVYNLTQEFFRHDKPVNAESQNSVGVFTREEVRNRIRNDPDDPEATKRLKLAMIQQYLKVESCESSSHSMDEVSLSAFGEWTEIPGAHHIIPSGFMRVVELLAEGIPAHVIQLGKPVRCIHWDQASARPRGPEIEPRGEGDHNHDTGEGGQGGEEPRGGRWDEDEQWSVVVECEDCELIPADHVIVTVSLGVLKRQYTSFFRPGLPTEKVAAIHRLGIGTTDKIFLEFEEPFWGPECNSLQFVWEDEAESHTLTYPPELWYRKICGFDVLYPPERYGHVLSGWICGEEALVMEKCDDEAVAEICTEMLRQFTGNPNIPKPRRILRSAWGSNPYFRGSYSYTQVGSSGADVEKLAKPLPYTESSKTAPMQVLFSGEATHRKYYSTTHGALLSGQREAARLIEMYRDLFQQGT
With B1 the Km was 121 µM and the Vmax was 0.124 µmol/min/mg.
